Publication PMC4628070, “Independent Mechanisms Target SMCHD1 to Trimethylated Histone H3 Lysine 9-Modified Chromatin and the Inactive X Chromosome” (Molecular and Cellular Biology, 2015)

Columns and labels:
[1] = target: Full-length FLAG-tagged recombinant SMCHD1 (mouse) (UniProt Q6P5D8); experiment: negative-stain electron microscopy; purified FLAG-rSMCHD1, 100 ng/ml, 0.75% uranyl formate, 80 kV
[2] = target: the molecule itself; experiment: SEC; affinity-purified wild-type and mutant hinge domains on a Superdex 75 10/300 column, 0.5-ml fractions, A280 and Coomassie-stained SDS-PAGE

stoichiometry N [1]	Molecule	stoichiometry N [2]
2	Full-length FLAG-tagged recombinant SMCHD1, Q6P5D8 1-2007	–
–	SMCHD1 hinge domain, recombinant wild type (residues 1616 to 1963) (domain or fragment, mouse, UniProt Q6P5D8 1616-1963, looked up, SMCHD1 SMC hinge domain, mouse, residues 1616 to 1963; Cloned into pET28a; also called wild-type HD; WT hinge; source: E. coli BL21-RosettaBlue, purified (Talon resin)) NDVKKQQQMAALTKEKDELSKSITMYRSLFDANKQLVDEMKCQAEEAKLKETQLRNELKAYNIDIPATQQTTHIEALLEKKITEQNELKKRPRRLCTLPNYTKRSGDILGKIAHLAQIEDDRAAMVISWHLASDMDCVVTLTTDAARAIYDETQGRQQVLPLDSIYRKTLPDWKRPLPHFRNGKLHFKPFGNPVFARDLLTFPDNIEHCETVFGMLLGDTIILDNLDAANHYRKEVVKITHCPTLLTRDGDRIRSNGKFGGLQNKAPPMDKLRGMVFGAPVPKQCVVLGKQIDLIQQYRTALYRLSSVNEDLDNQLQYLHTPDMKKKKQELDEQEKSLKRIEQKLGMT	2
